The values below come from patent publication US20150203577A1 (Chugai, published 2015).

Substitutions are numbered along the chain they refer to. Names and notes keep the numbering of the source.

The target in assay [1] is T1, mouse FcγRII (mouse, UniProt P08101 30-210).
T1 construct: also called mFcγRII; mFcgRII
T1 sequence: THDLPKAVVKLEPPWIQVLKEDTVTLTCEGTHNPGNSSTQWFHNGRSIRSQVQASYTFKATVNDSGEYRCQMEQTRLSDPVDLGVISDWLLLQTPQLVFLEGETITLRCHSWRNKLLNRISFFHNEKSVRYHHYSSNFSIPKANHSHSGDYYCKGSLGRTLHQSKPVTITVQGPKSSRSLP
In words: SPR Biacore T200, KD ratio; upper end tied to MB397 by Table 8. In general terms: Surface plasmon resonance follows binding to a sensor surface in real time, without labels.

Assay [2] addresses T1, mouse FcγRII. Description: SPR Biacore T200, KD ratio.
The target in assay [3] is T1, mouse FcγRII. In words: SPR Biacore T200, KD ratio; lower end tied to MB684 by Table 20.
The target in assay [4] is T1, mouse FcγRII. Description: told of the L104-mk1 form; SPR was run on the MRAL-k0 form.
For the next assay, the target named is T2, mouse FcγRIII (mouse, UniProt P08508 31-215).
T2 construct: also called mFcγRIII; mFcgRIII
T2 chain: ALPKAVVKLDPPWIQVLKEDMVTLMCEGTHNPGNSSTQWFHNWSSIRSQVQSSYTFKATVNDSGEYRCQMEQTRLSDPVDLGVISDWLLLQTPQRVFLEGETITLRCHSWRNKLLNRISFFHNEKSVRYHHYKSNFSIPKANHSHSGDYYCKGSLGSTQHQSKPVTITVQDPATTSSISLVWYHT
The assay is described as above.

Assay [5] has as its target T3, mouse FcγRIII extracellular domain, C-terminal His tag (mouse, UniProt P08508 31-215).
T3 construct: Whole entry named; also called mFcγRIII; mFcgRIII
T3 chain: T2 chain
Description: SPR (Biacore T200). From the text:
The antibody H chain variable region used was the variable region H237 (SEQ ID NO: 1) of the H chain VH3-IgG1 of the anti-IL-6 receptor antibody Fv4-IgG1 described in WO2009/125825. The antibody L chain commonly used was the L chain MRAL-k0 (SEQ ID NO: 2) of the anti-IL-6 receptor antibody tocilizumab. The aforementioned 7 variants were used as templates to substitute the amino acids at the alteration sites by the amino acids before the alteration. These variants were expressed and purified by the method of Reference Example 1 and evaluated for their binding to mFcγRII and mFcγRIII by the method of Reference Example 2 using Biacore T200.
Each altered antibody was analyzed for its interaction with each Fcγ receptor prepared above using Biacore T100 (GE Healthcare Japan Corp.), Biacore T200 (GE Healthcare Japan Corp.), Biacore A100, or Biacore 4000. The running buffer used was HBS-EP+ (GE Healthcare Japan Corp.). The assay temperature was set to 25° C. The sensor chips used were chips prepared by immobilizing Protein L (ACTIGEN or BioVision) onto Series S Sensor Chip CM5 (GE Healthcare Japan Corp.) or Series S Sensor Chip CM4 (GE Healthcare Japan Corp.) by the amine coupling method.

In assay [6] the target is T4, mouse FcγRII extracellular domain, C-terminal His tag (mouse, UniProt P08101 30-210).
T4 construct: Whole entry named; also called mFcγRII; mFcgRII
T4 sequence: T1 sequence
Description: SPR (Biacore T200); KD of H237-mIgG1/MRAL-k0 / KD of variant.

Assay [7] has as its target T1, mouse FcγRII. In words: SPR Biacore T200, KD ratio; upper end tied to MB682 by Table 20.
Assay [8] concerns the target T1, mouse FcγRII. In words: SPR Biacore T200, KD ratio; lower end tied to MB425 by Table 8.
Assay [9] addresses T5, mouse FcγRIII extracellular domain, C-terminally His-tagged (mouse, UniProt P08508 31-215).
T5 construct: the whole entry is named; also called mFcγRIII; mFcgRIII
T5 chain: T2 chain
In words: SPR Biacore T200, KD ratio.

For assay [10], the target named is T6, mouse FcγRII extracellular domain, C-terminally His-tagged (mouse, UniProt P08101 30-210).
T6 construct: the whole entry is named; also called mFcγRII; mFcgRII
T6 sequence: T1 sequence
In words: SPR Biacore T200.

B1: H237-MB397/MRAL-k0 (antibody, mouse IgG1, kappa)
heavy: QVQLQESGPGLVKPSETLSLTCAVSGHSISHDHAWSWVRQPPGEGLEWIGFISYSGITNYNPSLQGRVTISRDNSKNTLYLQMNSLRAEDTAVYYCARSLARTTAMDYWGEGTLVTVSSAKTTPPSVYPLAPGSAAQTNSMVTLGCLVKGYFPEPVTVTWNSGSLSSGVHTFPAVLQSDLYTLSSSVTVPSSTWPSETVTCNVAHPASSTKVDKKIVPRDCGCKPCICETYEVEDVFIFPPKPKDVLTITLTPKVTCVVVDISKDDPEVQFSWFVDDVEVHTAQTQPREEQFNSTFRSVSELPIMHQDWLNGKEFKCRVNSAAFPAPIEKTISKTKGRPKAPQVYTIPPPKEQMAKDKVSLTCMITDFFPEDITVEWQWNGQPAENYKNTQPIMDTDGSYFVYSKLNVQKSNWEAGNTFTCSVLHEGLHNHHTEKSLSHSPGK
light: not shown
notes: mIgG1 with T230E/V231T/P232Y/S238E/S239D; also called template T4; copies: 2 + 2
In the case of B1, the results for the “relative mFcγRII-binding activity (H237-mIgG1/MRAL-k0 = 1)” value in the assay with mouse FcγRII [1] and with mouse FcγRII [2] were 600 fold and more than 500 fold, respectively.

B2: MB684 (antibody)
heavy: B1 heavy with E229Q, T230P, Y231K
light: not shown
notes: copies: 2 + 2
Consider B2, for which the “relative mFcγRII-binding activity (H237-mIgG1/MRAL-k0 = 1)” value in the assay with mouse FcγRII [3] was 5 to 15 fold.

B3: H237-mF46/L104-mk1 (antibody, mouse IgG1, kappa)
heavy: B1 heavy with E229T, T230V, Y231P, E234S, A323D
light: DIQMTQSPSSLSASVGDSVTITCQASTDISSHLNWYQQKPGKAPELLIYYGSHLLSGVPSRFSGSGSGTDFTFTISSLEAEDAATYYCGQGNRLPYTFGQGTKVEIERADAAPTVSIFPPSSEQLTSGGASVVCFLNNFYPKDINVKWKIDGSERQNGVLNSWTDQDSKDSTYSMSSTLTLTKDEYERHNSYTCEATHKTSTSPIVKSFNRNEC
notes: the text speaks of it for this form; copies: 2 + 2
Regarding B3, the binding result with mouse FcγRII [4] and with mouse FcγRIII was “binds” in each case.

B4: H237-MB697/MRAL-k0 (antibody, mouse IgG1, kappa)
heavy: B1 heavy with T230P, Y231P, D235F
light: not shown
notes: copies: 2 + 2
With B4, in [5], the binding result is recorded as “no binding”. In addition, in assay [6], the “relative mFcγRII-binding activity (mIgG1 = 1)” value is 0.217 fold.

B5: MB682 (antibody)
heavy: B1 heavy with T230P, Y231K
light: not shown
notes: copies: 2 + 2
In the case of B5, the “relative mFcγRII-binding activity (H237-mIgG1/MRAL-k0 = 1)” value with mouse FcγRII [7] fell in the range of 5 to 15 fold.

B6: H237-MB425/MRAL-k0 (antibody, mouse IgG1, kappa)
heavy: B1 heavy with E229I, T230P, Y231A
light: not shown
notes: mIgG1 with T230I/V231P/P232A/S238E/S239D; also called template T7; copies: 2 + 2
For the molecule B6, the “relative mFcγRII-binding activity (H237-mIgG1/MRAL-k0 = 1)” value in the assay with mouse FcγRII [8] was 200 fold.

B7: H237-MB701/MRAL-k0 (antibody, mouse IgG1, kappa)
heavy: B1 heavy with T230V, Y231P, V233E, D235F
light: not shown
notes: copies: 2 + 2
As to B7, the binding result in assay [5] was “no binding”. The “relative mFcγRII-binding activity (mIgG1 = 1)” value in assay [6] came to 0.187 fold.

B8: H237-MB656/MRAL-k0 (antibody, mouse IgG1, kappa)
heavy: B1 heavy with E229I, T230P, Y231A, D235F
light: not shown
notes: copies: 2 + 2
In the case of B8, the “relative mFcγRIII-binding activity (mIgG1 = 1)” value in assay [9] came to 0.02 fold. Moreover, in assay [10], the binding result is listed as “no binding”.
